Here are results for one molecule from patent US20030017502A1, “Methods involving the use of capG as a diagnostic marker and methods for the identification of capG modulators for the treatment and prevention of osteoporosis and related disease states” (priority 2001, published 2003).

This test deals with capG phosphorylation in RAW 264 cells. The test can be described thus: two-dimensional anti-phosphotyrosine Western blot of RAW 264 cell lysates with and without RANKL stimulation and inhibitor pretreatment. The format is cell-based, murine. Particulars: RAW 264 cells stimulated with RANKL versus unstimulated control. Here is the method:
RAW 264 cells were obtained from Bristol Myers Squibb Department of Metabolic Diseases. The cells were grown in minimal essential media supplemented with 5% fetal bovine serum and 1% nonessential amino acids. For assay purposes, RAW 264 cells were starved for 5 hours in serum free media and then cultured in media containing 2% fetal bovine serum and RANK ligand. When inhibitors were used, as set forth below, the cells were pre-exposed to the inhibitor for one hour prior to RANKL stimulation. To identify RANKL specific tyrosine phosphorylation, RAW264 cells were treated with RANKL in the presence and absence of PP1 [4-Amino-5-(4-methylphenyl)-7-(t-butyl)pyrazolo[3,4-d]pyrimidine], a specific inhibitor of pp60src and wortmannin, a specific inhibitor of PI3kinase (Lakkakorpi, P. T. et al., “Phosphatidylinositol 3-kinase association with the osteoclast cytoskeleton, and its involvement in osteoclast attachment and spreading”. Exp. Cell Res. 237(2):296-306 (1997)), and cell lysates evaluated by proteomic analysis. Cell lysates were separated by two-dimensional electrophoresis in duplicate and transferred to PVDF membranes. […] 35(6):672-682 (2000), for subsequent proteomic analysis with the corresponding membrane analyzed by western blotting using anti-phosphotyrosine antibody. […] Maximal fluorescence incorporation occurred within 4 hours. […]
Background: In western blotting, separated proteins are transferred to a membrane and probed.

B1: RANKL: ligand recognized by receptor activator of NF-κB (RANK), leads to osteoclast differentiation (protein, UniProt O14788 140-317, looked up)
Tumor necrosis factor ligand …: IRAEKAMVDGSWLDLAKRSKLEAQPFAHLTINATDIPSGSHKVSLSSWYHDRGWAKISNMTFSNGKLIVNQDGFYYLYANICFRHHETSGDLATEYLQLMVYVTKTSIKIPSSHTLMKGGSTKYWSGNSEFHFYSINVGGFFKLRSGEEISIEVSNPSLLDPDQDATYFGAFKVRDID
As for B1, the “capG phosphorylation on stimulation” value was “causes capG 102 phosphorylation”.
